# Data taken from US9958461B2, “Detection of protein to protein interactions” (THE GOVERNING COUNCIL OF THE UNIVERSITY OF TORONTO, priority 2013, dated 2018).
# B1: PTPN12 (protein, UniProt Q05209 1-780, looked up)
# Tyrosine-protein phosphatase …: MEQVEILRKFIQRVQAMKSPDHNGEDNFARDFMRLRRLSTKYRTEKIYPTATGEKEENVKKNRYKDILPFDHSRVKLTLKTPSQDSDYINANFIKGVYGPKAYVATQGPLANTVIDFWRMIWEYNVVIIVMACREFEMGRKKCERYWPLYGEDPITFAPFKISCEDEQARTDYFIRTLLLEFQNESRRLYQFHYVNWPDHDVPSSFDSILDMISLMRKYQEHEDVPICIHCSAGCGRTGAICAIDYTWNLLKAGKIPEEFNVFNLIQEMRTQRHSAVQTKEQYELVHRAIAQLFEKQLQLYEIHGAQKIADGVNEINTENMVSSIEPEKQDSPPPKPPRTRSCLVEGDAKEEILQPPEPHPVPPILTPSPPSAFPTVTTVWQDNDRYHPKPVLHMVSSEQHSADLNRNYSKSTELPGKNESTIEQIDKKLERNLSFEIKKVPLQEGPKSFDGNTLLNRGHAIKIKSASPCIADKISKPQELSSDLNVGDTSQNSCVDCSVTQSNKVSVTPPEESQNSDTPPRPDRLPLDEKGHVTWSFHGPENAIPIPDLSEGNSSDINYQTRKTVSLTPSPTTQVETPDLVDHDNTSPLFRTPLSFTNPLHSDDSDSDERNSDGAVTQNKTNISTASATVSAATSTESISTRKVLPMSIARHNIAGTTHSGAEKDVDVSEDSPPPLPERTPESFVLASEHNTPVRSEWSELQSQERSEQKKSEGLITSENEKCDHPAGGIHYEMCIECPPTFSDKREQISENPTEATDIGFGNRCGKPKGPRDPPSEWT
# B2: ITK (protein, UniProt Q08881 1-620, looked up)
# Tyrosine-protein kinase …: MNNFILLEEQLIKKSQQKRRTSPSNFKVRFFVLTKASLAYFEDRHGKKRTLKGSIELSRIKCVEIVKSDISIPCHYKYPFQVVHDNYLLYVFAPDRESRQRWVLALKEETRNNNSLVPKYHPNFWMDGKWRCCSQLEKLATGCAQYDPTKNASKKPLPPTPEDNRRPLWEPEETVVIALYDYQTNDPQELALRRNEEYCLLDSSEIHWWRVQDRNGHEGYVPSSYLVEKSPNNLETYEWYNKSISRDKAEKLLLDTGKEGAFMVRDSRTAGTYTVSVFTKAVVSENNPCIKHYHIKETNDNPKRYYVAEKYVFDSIPLLINYHQHNGGGLVTRLRYPVCFGRQKAPVTAGLRYGKWVIDPSELTFVQEIGSGQFGLVHLGYWLNKDKVAIKTIREGAMSEEDFIEEAEVMMKLSHPKLVQLYGVCLEQAPICLVFEFMEHGCLSDYLRTQRGLFAAETLLGMCLDVCEGMAYLEEACVIHRDLAARNCLVGENQVIKVSDFGMTRFVLDDQYTSSTGTKFPVKWASPEVFSFSRYSSKSDVWSFGVLMWEVFSEGKIPYENRSNSEVVEDISTGFRLYKPRLASTHVYQIMNHCWKERPEDRPAFSRLLRQLAEIAESGL
# B3: CTNNA1 (protein, UniProt P35221 2-906, looked up)
# Catenin alpha-1: TAVHAGNINFKWDPKSLEIRTLAVERLLEPLVTQVTTLVNTNSKGPSNKKRGRSKKAHVLAASVEQATENFLEKGDKIAKESQFLKEELVAAVEDVRKQGDLMKAAAGEFADDPCSSVKRGNMVRAARALLSAVTRLLILADMADVYKLLVQLKVVEDGILKLRNAGNEQDLGIQYKALKPEVDKLNIMAAKRQQELKDVGHRDQMAAARGILQKNVPILYTASQACLQHPDVAAYKANRDLIYKQLQQAVTGISNAAQATASDDASQHQGGGGGELAYALNNFDKQIIVDPLSFSEERFRPSLEERLESIISGAALMADSSCTRDDRRERIVAECNAVRQALQDLLSEYMGNAGRKERSDALNSAIDKMTKKTRDLRRQLRKAVMDHVSDSFLETNVPLLVLIEAAKNGNEKEVKEYAQVFREHANKLIEVANLACSISNNEEGVKLVRMSASQLEALCPQVINAALALAAKPQSKLAQENMDLFKEQWEKQVRVLTDAVDDITSIDDFLAVSENHILEDVNKCVIALQEKDVDGLDRTAGAIRGRAARVIHVVTSEMDNYEPGVYTEKVLEATKLLSNTVMPRFTEQVEAAVEALSSDPAQPMDENEFIDASRLVYDGIRDIRKAVLMIRTPEELDDSDFETEDFDVRSRTSVQTEDDQLIAGQSARAIMAQLPQEQKAKIAEQVASFQEEKSKLDAEVSKWDDSGNDIIVLAKQMCMIMMEMTDFTRGKGPLKNTSDVISAAKKIAEAGSRMDKLGRTIADHCPDSACKQDLLAYLQRIALYCHQLNICSKVKAEVQNLGGELVVSGVDSAMSLIQAAKNLMNAVVQTVKASYVASTKYQKSQGMASLNLPAVSWKMKAPEKKPLVKREKQDETQTKIKRASQKKHVNPVQALSEFKAMDSI
# B4: LAT (protein, UniProt O43561 1-262, looked up)
# Linker for activation of …: MEEAILVPCVLGLLLLPILAMLMALCVHCHRLPGSYDSTSSDSLYPRGIQFKRPHTVAPWPPAYPPVTSYPPLSQPDLLPIPRSPQPLGGSHRTPSSRRDSDGANSVASYENEGASGIRGAQAGWGVWGPSWTRLTPVSLPPEPACEDADEDEDDYHNPGYLVVLPDSTPATSTAAPSAPALSTPGIRDSAFSMESIDDYVNVPESGESAEASLDGSREYVNVSQELHPGAAKTEPAALSSQEAEEVEEEGAPDYENLQELN
# B5: CTTN (protein, UniProt Q14247 1-550, looked up)
# Src substrate cortactin: MWKASAGHAVSIAQDDAGADDWETDPDFVNDVSEKEQRWGAKTVQGSGHQEHINIHKLRENVFQEHQTLKEKELETGPKASHGYGGKFGVEQDRMDKSAVGHEYQSKLSKHCSQVDSVRGFGGKFGVQMDRVDQSAVGFEYQGKTEKHASQKDYSSGFGGKYGVQADRVDKSAVGFDYQGKTEKHESQRDYSKGFGGKYGIDKDKVDKSAVGFEYQGKTEKHESQKDYVKGFGGKFGVQTDRQDKCALGWDHQEKLQLHESQKDYKTGFGGKFGVQSERQDSAAVGFDYKEKLAKHESQQDYSKGFGGKYGVQKDRMDKNASTFEDVTQVSSAYQKTVPVEAVTSKTSNIRANFENLAKEKEQEDRRKAEAERAQRMAKERQEQEEARRKLEEQARAKTQTPPVSPAPQPTEERLPSSPVYEDAASFKAELSYRGPVSGTEPEPVYSMEAADYREASSQQGLAYATEAVYESAEAPGHYPAEDSTYDEYENDLGITAVALYDYQAAGDDEISFDPDDIITNIEMIDDGWWRGVCKGRYGLFPANYVELRQ
# B6: PLCG2 (protein, UniProt P16885 1-1265, looked up)
# 1-phosphatidylinositol …: MSTTVNVDSLAEYEKSQIKRALELGTVMTVFSFRKSTPERRTVQVIMETRQVAWSKTADKIEGFLDIMEIKEIRPGKNSKDFERAKAVRQKEDCCFTILYGTQFVLSTLSLAADSKEDAVNWLSGLKILHQEAMNASTPTIIESWLRKQIYSVDQTRRNSISLRELKTILPLINFKVSSAKFLKDKFVEIGAHKDELSFEQFHLFYKKLMFEQQKSILDEFKKDSSVFILGNTDRPDASAVYLHDFQRFLIHEQQEHWAQDLNKVRERMTKFIDDTMRETAEPFLFVDEFLTYLFSRENSIWDEKYDAVDMQDMNNPLSHYWISSSHNTYLTGDQLRSESSPEAYIRCLRMGCRCIELDCWDGPDGKPVIYHGWTRTTKIKFDDVVQAIKDHAFVTSSFPVILSIEEHCSVEQQRHMAKAFKEVFGDLLLTKPTEASADQLPSPSQLREKIIIKHKKLGPRGDVDVNMEDKKDEHKQQGELYMWDSIDQKWTRHYCAIADAKLSFSDDIEQTMEEEVPQDIPPTELHFGEKWFHKKVEKRTSAEKLLQEYCMETGGKDGTFLVRESETFPNDYTLSFWRSGRVQHCRIRSTMEGGTLKYYLTDNLTFSSIYALIQHYRETHLRCAEFELRLTDPVPNPNPHESKPWYYDSLSRGEAEDMLMRIPRDGAFLIRKREGSDSYAITFRARGKVKHCRINRDGRHFVLGTSAYFESLVELVSYYEKHSLYRKMRLRYPVTPELLERYNMERDINSLYDVSRMYVDPSEINPSMPQRTVKALYDYKAKRSDELSFCRGALIHNVSKEPGGWWKGDYGTRIQQYFPSNYVEDISTADFEELEKQIIEDNPLGSLCRGILDLNTYNVVKAPQGKNQKSFVFILEPKQQGDPPVEFATDRVEELFEWFQSIREITWKIDTKENNMKYWEKNQSIAIELSDLVVYCKPTSKTKDNLENPDFREIRSFVETKADSIIRQKPVDLLKYNQKGLTRVYPKGQRVDSSNYDPFRLWLCGSQMVALNFQTADKYMQMNHALFSLNGRTGYVLQPESMRTEKYDPMPPESQRKILMTLTVKVLGARHLPKLGRSIACPFVEVEICGAEYDNNKFKTTVVNDNGLSPIWAPTQEKVTFEIYDPNLAFLRFVVYEEDMFSDPNFLAHATYPIKAVKSGFRSVPLKNGYSEDIELASLLVFCEMRPVLESEEELYSSCRQLRRRQEELNNQLFLYDTHQNLRNANRDALVKEFSVNENQLQLYQEKCNKRLREKRVSNSKFYS
# B7: STAP2 (protein, UniProt Q9UGK3 1-403, looked up)
# Signal-transducing adaptor …: MASALRPPRVPKPKGVLPSHYYESFLEKKGPCDRDYKKFWAGLQGLTIYFYNSNRDFQHVEKLNLGAFEKLTDEIPWGSSRDPGTHFSLILRDQEIKFKVETLECREMWKGFILTVVELRVPTDLTLLPGHLYMMSEVLAKEEARRALETPSCFLKVSRLEAQLLLERYPECGNLLLRPSGDGADGVSVTTRQMHNGTHVVRHYKVKREGPKYVIDVEQPFSCTSLDAVVNYFVSHTKKALVPFLLDEDYEKVLGYVEADKENGENVWVAPSAPGPGPAPCTGGPKPLSPASSQDKLPPLPPLPNQEENYVTPIGDGPAVDYENQDVASSSWPVILKPKKLPKPPAKLPKPPVGPKPEPKVFNGGLGRKLPVSSAQPLFPTAGLADMTAELQKKLEKRRALEH
# Target: T1, EGFR-Wt (Homo sapiens, UniProt P00533)
# T1 construct: with the advantage of testing full-length integral membrane proteins; (GGGGS)2 linker-Cub (human ubiquitin aa 35-76)-GAL4(1-147)-mNFkB(364-550) (C); expressed in transfected cells
# Experiment: MaMTH EGFR-interactor screen, lentiviral preys against EGFR-wildtype bait (interaction score)
# Type: cell-based
# Conditions: MaMTH interaction score of prey with EGFR-Wt bait, mean
# Protocol: (§1) After lentivirus harvest, target cells (stable 5×GAL4UAS-luciferase reporter-HEK293T cells) were infected at a multiplicity of infection (MOI) of around 0.3-0.4 to ensure single copy integration per cell. Cells were selected in puromycin for at least 48 h and transfected with either EGFR-wildtype or EGFR-L858R baits in triplicates. 24 h after transfection, cells were lysed and luciferase assays performed. On each set of interaction assays, various negative controls were included. To calculate a MaMTH-interaction scores, negative controls were averaged and the fold-change of luciferase activity compared to the averaged controls was calculated and defined as the interaction score.
# (§2) Each set of experiments contains a defined set of negative controls in at least three replicates. Negative controls were chosen as such that there is a range of controls showing high-background luciferase activity (normally cytosolic proteins: Fabp5, Pex19) as well as medium-background luciferase activity (membrane-bound interactors: Pex7, GABBR2). Negative controls were averaged and the fold-change of luciferase activity was calculated. Using this method, we have a stringent cut-off and chose an interaction score >1 to be interacting proteins.
# (§3) Our cut-off of 1 is based on fold-change difference in luciferase activity over averaged negative controls. Negative controls include cytosolic preys (which tend to promiscuously bind to many proteins), plasma membrane- and peroxisomal-prey proteins. In general, we chose stringent conditions by testing preys that tend to have high luciferase background with any bait tested, in order to generate high-confidence interaction data. […] Phosphorylated tyrosine residues on the receptor are typically docking sites for downstream cytoplasmic targets and recognized through SH2 or PTB domains^43.
row,EGFR-Wt mean,Molecule
1,2.64,B1
2,2.21,B2
3,2.11,B3
4,29.54,B4
5,33.81,B5
6,3.99,B6
7,2.76,B7

# Test system: EGFR-Wt
# Experiment: as above
# Type: cell-based, human
# Conditions: ratio of EGFR-Wt mean to EGFR-L858R mean interaction score
# Protocol: as §1, §2, §3
row,Molecule,Wt/L858R
1,B1,2.20
2,B2,2.35
3,B3,1.58
4,B4,1.61
5,B5,1.53
6,B6,1.64
7,B7,1.86

# Target: T2, EGFR-L858R (Homo sapiens, UniProt P00533, L858R)
# T2 construct: with the advantage of testing full-length integral membrane proteins; (GGGGS)2 linker-Cub (human ubiquitin aa 35-76)-GAL4(1-147)-mNFkB(364-550) (C); expressed in transfected cells
# Experiment: MaMTH EGFR-interactor screen, lentiviral preys against EGFR-L858R bait (interaction score)
# Type: cell-based
# Conditions: MaMTH interaction score of prey with EGFR-L858R bait
# Protocol: as §1, §2, §3
row,EGFR-L858R mean,Molecule
1,1.20,B1
2,0.94,B2
3,1.34,B3
4,18.39,B4
5,22.11,B5
6,2.43,B6
7,1.49,B7
